The supplement of paper PMC7125110
± gives the standard error. Fewer inactive variants are shown than the library holds.

B1: glmS ribozyme (parent)
chain: AUAAAAGCGCCAGAACUACAGAAAUGUAGUUGACGAGGAGGAGGUUUAUCGAAUUUUCGGCGGAUGCCUCCAAA

Assays:
Settings in all cases: with glucosamine-6-phosphate
[1] = variants of: B1; assay: self-cleavage kobs at 640 uM GlcN6P; higher = faster cleavage; RNA array
Summary of the method: (§1)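 Sequenced MiSeq chips were the platform: E. coli RNA polymerase transcribed barcoded ribozyme variants on them in situ, and a hybridised Cy3 probe tracked these at 37 °C. After glucosamine-6-phosphate (40 μM to 10 mM) in HEPES/KCl/Mg(OAc)2 buffer was flowed in, tiles were imaged over ~14 h. Signals normalised to baseline and to non-cleaving reference variants were reduced to per-tile medians and fit to one- or two-exponential decays to obtain kobs. kcat and KM were derived through weighted Michaelis–Menten fits across concentrations.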

[2] = variants of: B1; assay: self-cleavage kobs at 2500 uM GlcN6P; higher = faster cleavage; RNA array
Summary of the method: as §1

[3] = variants of: B1; assay: self-cleavage kobs at 10000 uM GlcN6P; higher = faster cleavage; RNA array
Summary of the method: as §1

## AUAAAAGCGCCAGAACUACAGAAAUGUAGUUGACGAGGAUGAGGUUUAUGGAAUUUUCGGCGGAUGCCUCCAAA [G40U C50G]
[1]
  self-cleavage kobs at 640 uM GlcN6P: < 1e-05 s⁻¹
[2]
  self-cleavage kobs at 2500 uM GlcN6P: < 1e-05 s⁻¹
[3]
  self-cleavage kobs at 10000 uM GlcN6P: < 1e-05 s⁻¹

## AUAAAACCGCCAGCACUACAGAAAUGUAGUUGACGAGGAGGAGAUUUAUCGAAUUUUCGGCGAAUGCCUCCAAA [G7C A14C G44A G63A]
[1]
  self-cleavage kobs at 640 uM GlcN6P: < 1e-05 s⁻¹
[2]
  self-cleavage kobs at 2500 uM GlcN6P: < 1e-05 s⁻¹

## AUAAAAGCGCCCGAACUACAGAAAUGUAGUUGACGAGGAGGAGGUUUCUCGAAUUUUCGCCCGAUGCAUCCAAA [A12C A48C G60C G62C C68A]
[1]
  self-cleavage kobs at 640 uM GlcN6P: < 1e-05 s⁻¹

## AUAAAAGCGCCAGAACUACAGAAAUGUAGUUGUCGAGGAGGAGGCUUAUAGAAUUUUCGGCGGAUGCCUCCAAA [A33U U45C C50A]
[1]
  self-cleavage kobs at 640 uM GlcN6P: < 1e-05 s⁻¹
[2]
  self-cleavage kobs at 2500 uM GlcN6P: < 1e-05 s⁻¹

## AUAAAAGCGCCAGAACUACAGAAAUGUAGUUGACGAGGAGGAGGUUUAUCGAAUUUUUGGCAGAUGCGUCCAAA [C58U G62A C68G]
[1]
  self-cleavage kobs at 640 uM GlcN6P: 6.69e-05 ± 2.4e-05 s⁻¹

## AUAAAAGUGCCAGAACUACAGAAAUGUAGUUGUCGAGGAGGAGGUUUAUCGAAUUUUCGUCGGAUGCCUCCAAA [C8U A33U G60U]
[1]
  self-cleavage kobs at 640 uM GlcN6P: < 1e-05 s⁻¹
[2]
  self-cleavage kobs at 2500 uM GlcN6P: < 1e-05 s⁻¹

## AUAAAAGCACCAGAACUACAGAAAUGUAGUUGACGAGGAGGAGCUUUAUCGAGUUUACGGCGGAUGCCUCCAAA [G9A G44C A53G U57A]
[1]
  self-cleavage kobs at 640 uM GlcN6P: < 1e-05 s⁻¹
[2]
  self-cleavage kobs at 2500 uM GlcN6P: < 1e-05 s⁻¹
[3]
  self-cleavage kobs at 10000 uM GlcN6P: < 1e-05 s⁻¹

## AUAAAAGCGCCAGAACUACAGAAAUGUAGUUGCCGAGGAGGAGGUUUAUCGGAUUUUCGGCGGAUGUCUCCAAA [A33C A52G C67U]
[1]
  self-cleavage kobs at 640 uM GlcN6P: < 1e-05 s⁻¹
[2]
  self-cleavage kobs at 2500 uM GlcN6P: < 1e-05 s⁻¹

## AUAAAAGGGCCAGAGCUACAGAAAUGUAGUUGCCGAGGAGGAGGUUUAUCGAAUUUUCGGCGGAUGCCUCCAAA [C8G A15G A33C]
[1]
  self-cleavage kobs at 640 uM GlcN6P: < 1e-05 s⁻¹
[2]
  self-cleavage kobs at 2500 uM GlcN6P: < 1e-05 s⁻¹

## AUAAAAGCGCUAGCACUACAGAAAUGUAGUUGACGAGGGGGAGGUUUAUCGAAUUUUCGGCGGAUGCCUCCAAA [C11U A14C A39G]
[1]
  self-cleavage kobs at 640 uM GlcN6P: 0.000103 ± 3.3e-05 s⁻¹
[2]
  self-cleavage kobs at 2500 uM GlcN6P: 0.000472 ± 0.00019 s⁻¹

## AUAAAAGCGCCAGAACUACAGAAAUGUAGUUGACGAGGAGGAGUUUUUUCGAAUUUUCGGCGGAUGUCUCCAAA [G44U A48U C67U]
[1]
  self-cleavage kobs at 640 uM GlcN6P: 0.000119 ± 4.8e-05 s⁻¹
[2]
  self-cleavage kobs at 2500 uM GlcN6P: 0.000418 ± 0.00012 s⁻¹

## AUAAAUGCACCAGAACUACAGAAAUGUAGUUGACGAGGAGGAGGUUUAUUGAAUUUUCGGCGGAUGCCUCCAAA [A6U G9A C50U]
[1]
  self-cleavage kobs at 640 uM GlcN6P: < 1e-05 s⁻¹

## AUAAAAGCGCCAGAACUACAGAAAUGUAUUUGACGAGGAGGGGGUUUAUCGAAUUUUCGGCCGAUGCCUCCAAA [G29U A42G G62C]
[1]
  self-cleavage kobs at 640 uM GlcN6P: < 1e-05 s⁻¹

## AUAAAAGCGCCAGAACUACAGAAAUGUAGGUGACGAGGAGGAGGUUUAUCGAGUUUUCGGCGGAUGUCUCCAAA [U30G A53G C67U]
[1]
  self-cleavage kobs at 640 uM GlcN6P: 0.000643 ± 0.00013 s⁻¹
[2]
  self-cleavage kobs at 2500 uM GlcN6P: 0.00132 ± 0.00032 s⁻¹

## AUAAAAGCGCCAGAACUACAGAAAUGUACUUGACGAGGAGGAGGUUUAUCGAAGUUUCGGCGGAUGCCUGCAAA [G29C U54G C70G]
[1]
  self-cleavage kobs at 640 uM GlcN6P: 7.66e-05 ± 3.1e-05 s⁻¹

## AUAAAAGCGCCGGAACUACAGAAAUGUAGUUGACGGGGAAGAGGUUUAUCGAAGUUUCGGCGGAUGCCUCCAAA [A12G A36G G40A U54G]
[1]
  self-cleavage kobs at 640 uM GlcN6P: < 1e-05 s⁻¹

## AUAAAAGCGCCAGAACUACAGAAAUGUAGUUGACGAGGAGGAGGUUUAGUGAAUUUUCGGCGGAUUCCUUCAAA [U49G C50U G66U C70U]
[1]
  self-cleavage kobs at 640 uM GlcN6P: 8.76e-05 ± 3.9e-05 s⁻¹

## AUAAAAGCGCGAGUACUACAGAAAUGUAGUUGACGAGGAGGAGGUUUAUCGUAUUUUCGGCGGAUGCGUCCAAA [C11G A14U A52U C68G]
[1]
  self-cleavage kobs at 640 uM GlcN6P: 0.000115 ± 3.6e-05 s⁻¹

## AUAAAAGCGCCAGAACUACAGAAAUGUAGUUGACGAGGAGGAGGUAUGUUGAAUUUUCGGCGGAUGCCUCCAAA [U46A A48G C50U]
[1]
  self-cleavage kobs at 640 uM GlcN6P: < 1e-05 s⁻¹
[2]
  self-cleavage kobs at 2500 uM GlcN6P: < 1e-05 s⁻¹

## AUAAAAGAGCCAGAACUACAGAAAUGUAGUUGAUGUGGAGGAGGUUUAUCGAAUUUUCUGCAGAUGCCUCCAAA [C8A C34U A36U G59U G62A]
[1]
  self-cleavage kobs at 640 uM GlcN6P: < 1e-05 s⁻¹

## AUAAAAGCGCCAGAACUACAGAAAUGUAGUUGACGAGGAGGAGGUUUAUCGAAGUUAGGGCGGAUGCAUCCAAA [U54G U57A C58G C68A]
[1]
  self-cleavage kobs at 640 uM GlcN6P: 0.000592 ± 0.00015 s⁻¹

## AUAAAAGCGCCAGAACUACAGAAAUGUAGUUGAGGAGGAUGAGGUAUAUCGAAUUUUCGGCGGAUGCCUCCAAA [C34G G40U U46A]
[1]
  self-cleavage kobs at 640 uM GlcN6P: < 1e-05 s⁻¹

## AUAAAAGCGCCAGAACUACAGAAAUGUAGUUCACGAUCAGGAGGUUUAUCGAAUUUUCGGCGGAUGCCUCCAAA [G32C G37U G38C]
[1]
  self-cleavage kobs at 640 uM GlcN6P: < 1e-05 s⁻¹
[2]
  self-cleavage kobs at 2500 uM GlcN6P: < 1e-05 s⁻¹
